Experiments:
hMRP5-Δ1-94-8xHis = molecular target: T1, hMRP5-Δ1-94-8xHis (human, UniProt O15440 95-1437, RED-tris-NTA 2nd Generation dye on the His tag); experiment: MST; digitonin-purified hMRP5-Δ1-94-8xHis labelled with RED-tris-NTA 2nd Generation dye; serially diluted peptides; 15 min at room temperature; HEPES buffer; 3% LED/excitation power, medium MST power (Monolith NT); conditions: both partners purified
T1 construct: human multidrug resistance protein 5 (MRP5, ABCC5), UniProt O15440, without the flexible N-terminal region Met1-Thr94; Plasmids and primers are in Supplementary Data 1 and 2; source: HEK293F, transfected; digitonin-purified (HEPES buffer instead of Tris)
T1 sequence (O15440 95-1437, stated change not applied): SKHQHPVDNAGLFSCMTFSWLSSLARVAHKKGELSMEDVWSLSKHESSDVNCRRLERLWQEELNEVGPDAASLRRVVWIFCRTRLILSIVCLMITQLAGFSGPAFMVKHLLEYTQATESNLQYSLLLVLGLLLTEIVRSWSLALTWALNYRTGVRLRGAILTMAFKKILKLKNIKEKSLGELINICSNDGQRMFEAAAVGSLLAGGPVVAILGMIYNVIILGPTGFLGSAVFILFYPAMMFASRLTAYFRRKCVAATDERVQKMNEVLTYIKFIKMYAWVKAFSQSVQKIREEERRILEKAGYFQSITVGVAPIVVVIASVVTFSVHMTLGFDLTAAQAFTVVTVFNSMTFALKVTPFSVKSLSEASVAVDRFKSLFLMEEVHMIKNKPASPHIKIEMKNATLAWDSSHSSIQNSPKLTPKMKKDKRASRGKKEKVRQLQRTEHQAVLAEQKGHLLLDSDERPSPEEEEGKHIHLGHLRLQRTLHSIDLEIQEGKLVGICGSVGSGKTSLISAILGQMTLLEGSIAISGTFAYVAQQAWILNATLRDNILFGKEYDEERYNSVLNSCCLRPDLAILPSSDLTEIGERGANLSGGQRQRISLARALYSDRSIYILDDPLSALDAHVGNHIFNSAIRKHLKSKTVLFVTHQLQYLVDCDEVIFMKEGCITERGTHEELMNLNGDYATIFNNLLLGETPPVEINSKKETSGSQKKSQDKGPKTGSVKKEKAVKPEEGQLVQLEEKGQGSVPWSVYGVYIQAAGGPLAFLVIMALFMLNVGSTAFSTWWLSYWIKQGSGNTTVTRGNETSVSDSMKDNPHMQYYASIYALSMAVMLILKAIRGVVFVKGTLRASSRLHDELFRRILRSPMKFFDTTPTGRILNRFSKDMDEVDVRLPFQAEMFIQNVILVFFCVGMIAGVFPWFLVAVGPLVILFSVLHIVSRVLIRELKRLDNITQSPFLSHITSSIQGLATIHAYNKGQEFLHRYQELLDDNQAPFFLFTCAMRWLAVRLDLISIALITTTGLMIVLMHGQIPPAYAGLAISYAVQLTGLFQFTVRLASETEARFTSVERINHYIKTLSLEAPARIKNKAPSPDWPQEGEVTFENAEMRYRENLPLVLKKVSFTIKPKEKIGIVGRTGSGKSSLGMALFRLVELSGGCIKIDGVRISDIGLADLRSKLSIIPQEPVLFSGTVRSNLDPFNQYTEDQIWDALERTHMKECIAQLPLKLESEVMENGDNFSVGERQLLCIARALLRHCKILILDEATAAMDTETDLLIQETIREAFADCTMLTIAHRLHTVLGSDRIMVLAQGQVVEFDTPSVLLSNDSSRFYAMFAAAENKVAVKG

hMRP5-Δ1-94 = molecular target: T2, hMRP5-Δ1-94 (human, UniProt O15440 95-1437); experiment: cryo-EM structure; peptide M5PI and hMRP5-Δ1-94 incubated on ice at a ratio of 2:1 for 1 h before vitrification; digitonin; conditions: both partners purified
T2 construct: human multidrug resistance protein 5 (MRP5, ABCC5), UniProt O15440, without the flexible N-terminal region Met1-Thr94; This is the construct used for cryo-EM; Plasmids and primers are in Supplementary Data 1 and 2; also called hMRP5-Δ1-94 truncation mutant; apo form; source: HEK293F, transfected, purified (strep-Tactin, SEC on Superose 6 Increase, digitonin)
T2 sequence (O15440 95-1437, stated change not applied): as above

binding result (hMRP5-Δ1-94-8xHis): binds
binding result (hMRP5-Δ1-94): binds
B1: MRP5 potential peptide inhibitor (M5PI) (peptide, UniProt O15440 35-75, looked up)
peptide: CSKFRRTRPLECQDALETAARAEGLSLDASMHSQLRILDEC
notes: stretch 35-75 of the N-terminal loop of human MRP5 (UniProt O15440) with both terminal residues replaced by cysteine; The cysteines were meant for cyclisation; also called D35C-E75C; Asp35Cys-Glu75Cys; source: synthetic peptide (GL Biochem, Shanghai)

Reference: article PMC11156954, “Inhibition and transport mechanisms of the ABC transporter hMRP5” (Nature Communications, 2024)
